Source: patent US7074765B2, “Synthetic peptide analogs of Arg-Pro-Pro-Gly-Phe as selective inhibitors of thrombin and thrombin activation of protease activated receptors 1 and 4” (The Regents of the University of Michigan, priority 2003, dated 2006)
Like-named read-outs stand apart in the source and are kept apart here. Ends that are not written are not given here.

Legend:
[1] = tested on: lipopolysaccharide-treated rats; conditions: infusion; cited from earlier work
[2] = target: T1, SILPAPRGYPGQ, thrombin binding and cleaving region on human PAR4 (Homo sapiens, UniProt Q96RI0); experiment: Inhibition of SILPAPRGYPGQ-biotin binding to RPPGC; conditions: 10 micromolar biotinylated-SIL12; 0.001 to 5 mM peptide
T1 construct: host or cells: synthetic peptide
Procedure: Investigations were performed to determine if the compounds in the present invention interact with human PAR4. In FIG. 11, RPPGC (SEQ ID NO:10) was bound to plastic microtiter plates, After washing, biotinylated-[…] (SEQ ID NO:14) was incubated with the cuvette wells in the absence or presence of 0.001 to 5 mM RPPGF (SEQ ID NO:4), TH146, TH26, SIL12 (SEQ ID NO:9), or a scrambled peptide of RPPGF, FPRPG (Phe-Pro-Arg-Pro-Gly, SEQ ID NO:21). Peptide […]

[3] = tested on: platelet activation and deposition; conditions: ex vivo balloon injury; similar to aspirin; cited from earlier work
[4] = target: T2, recombinant protease activated receptor 1 extracellular domain (rPAR1EC) (Homo sapiens, UniProt P25116); experiment: Inhibition of RPPGF-biotin binding to rPAR1EC; conditions: 5 mM peptide, 50 μM RPPGF-biotin (FIG. 7); listed in decreasing order
T2 construct: A portion of the extracellular domain of human PAR1 (Ala^26-Ser^99) (rPAR1EC) was expressed in Escherichia coli; His10-DDDDK (pET19b) (N); made in house; host or cells: E. coli BL21(DE3), pET19b
T2 sequence (P25116 26-99): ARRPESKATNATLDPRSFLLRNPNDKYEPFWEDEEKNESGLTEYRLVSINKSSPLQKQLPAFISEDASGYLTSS

[5] = target: T3, α-thrombin cleavage of recombinant extracellular fragment of human PAR1 (rPAR1EC) (Homo sapiens, UniProt P00734); experiment: Inhibition of α-thrombin-induced cleavage of rPAR1EC; assay type: biochemical
T3 construct: A portion of the extracellular domain of human PAR1 (Ala^26-Ser^99) (rPAR1EC) was expressed in Escherichia coli; with 1 nM of α-thrombin or 0.5 μg/mL thrombocytin (16.7 nM); His10-DDDDK (pET19b) (N); made in house; host or cells: E. coli BL21(DE3), pET19b (rPAR1EC)
Procedure: (§1) Thrombocytin is a snake venom enzyme that activates platelets by cleaving PAR1 at the thrombin cleavage site (Santos et al., FEBS Letters. 18, 3570–3577 (2000)). […] The ability of MAP4-rOicPGF to block thrombocytin cleavage of rPAR1EC was performed as follows. One μg of rPAR1EC in 0.01 mM Tris-HCL, 0.2 M NaCl, pH 8.0 was incubated at 37° C. for 15 min or 45 min with 1 nM of α-thrombin or 0.5 μg/mL thrombocytin (16.7 nM), respectively, in the absence or presence of 0.025 to 1 mM MAP4-rOicPGF. The reaction mixture was separated on SDS-PAGE and stained with Coomassie Brilliant Blue. The cleaved gel images were scanned using the software Scion Image, ScionCorp, Frederick, Md.

coronary thrombosis = conditions: canine electrolytic injury model; similar to aspirin treatment; cited from earlier work
[6] = target: T4, recombinant extracellular fragment of human protease activated receptor 4 (rPAR4EC) (Homo sapiens, UniProt Q96RI0); experiment: Inhibition of RPPGF-biotin binding to rPAR4EC; conditions: 5 mM peptide; 50 μM RPPGF-biotin
T4 construct: starting with Gly^18, the first amino acid after the signal peptide is removed, and finishing with Arg^78; made in house; host or cells: E. coli BL21, pET19b-PAR4
T4 sequence (Q96RI0 18-78): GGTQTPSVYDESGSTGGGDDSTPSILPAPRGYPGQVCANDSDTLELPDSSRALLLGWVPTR
Text: The extracellular fragment of human PAR4 has been expressed in bacteria. Human erythroleukemia (HEL) cells were used as a source for PAR4 mRNA. The level of PAR4 mRNA was substantially higher in HEL cells than washed human platelets. […] These primers give a 204 basepair fragment which code for a 61 amino acid hPAR4 protein starting with Gly^18, the first amino acid after the signal peptide is removed, and finishing with Arg^78, the last amino acid of the extracellular fragment (Xu et al. Proc. Natl. Acad. Sci. 95, 6642–6646 (1998)). The pET19b-PAR4 vector after cloning was used to transform BL21 cells to express the recombinant protein. The expressed recombinant protein was purified on a DEAE Sephadex followed by a nickel affinity column (the recombinant protein has a 10 His-tag on its amino terminal end). The isolated, recombinant extracellular domain of PAR4 (rPAREC) is about 15 kDa on 16.5% Tris-Tricine SDS-PAGE. The recombinant protein is recognized as being human PAR4 by detection with an antibody prepared from a peptide (S^41[…]^52) (SEQ ID NO:9) from human PAR4EC. Recombinant PAR4EC was linked to microtiter plate cuvette wells. Goat polyclonal antibody to human PAR1, PAR3, or PAR4 was incubated with the coated microtiter plate cuvette wells and antibody binding was detected. Only antibody to PAR4 detected rPAR4EC linked to the microtiter plate wells. […]

[7] = tested on: normal human lung fibroblasts (NHLF); experiment: α-thrombin-induced calcium mobilization in fibroblasts; assay type: cell-based; conditions: 0.1 mM peptide; α-thrombin-induced calcium mobilization in fibroblasts
Procedure: The second assay developed to assess peptides from the combinatorial libraries uses inhibition of α-thrombin-induced calcium mobilization in fibroblasts. Normal human lung fibroblasts (NHLF) were purchased from Clonetics, San Diego, Calif., an affiliate of Bio-Wittaker, Walkersville, Md. The cytoplasmic free Ca^2+ concentration ([Ca^2+]i) was measured using the fluorescent Ca^2+ indicator fura-2 (Molecular Probes, Inc., Eugene, Oreg.). Suspension of fibroblasts in Hepes-Tyrode's buffer were loaded with fura-2 by incubation at 37° C. with 2 μM fura-2/acetoxymethyl ester for 45 minutes according to the method of Rasmussen et al., J. Biol. Chem. 268, 14322 (1993). The labeled fibroblasts were separated from excess probe by washing by centrifugation at 1000 rpm (180×g). Aliquots of the labeled fibroblasts were transferred into a quartz cuvette with a magnetic stirrer, which was then placed in a thermostatically controlled chamber at 37° C. in a fluorescence spectrophotometer (Perkin-Elmer LS50B spectrofluorometer, Chicago, Ill.). Reagents, test peptide, and α-thrombin (0.25–2 nM), were sequentially added directly to the cuvette. The excitation wavelengths varied between 340 and 380 nm. Fluorescence was measured by recording emitted light at 510 nm as reported by Fisher et al., Mol Pharm. 35, 195 (1989). The minimum emission was determined on a solubilized fibroblast sample in the presence of 10 mM EDTA; maximum emission was determined on the same sample with 10 mM Ca^2+ added. The intrafibroblast free Ca^2+ concentration was calculated by the method of Grykiewicz et al., J. Biol. Chem. 260, 3440 (1985). […] The KD for fura-2 was assumed to be 224 nM. Rmax and Rmin are the maximum and minimum fluorescence ratios measured at the end of the experiment, respectively; Sf2 and Sb2 are the fluorescence values at 380 nm in the absence and presence of saturating [Ca^2+], respectively. The reaction was monitored for 3–5 minutes.

cyclic flow variations = conditions: Folt's model, canine; similar degree as aspirin or clopidogrel; cited from earlier work
[8] = target: T5, thrombocytin cleavage of recombinant human PAR1 extracellular domain (Homo sapiens, UniProt P25116); experiment: Inhibition of thrombocytin-induced cleavage of rPAR1EC; assay type: biochemical; conditions: 16.7 nM thrombocytin, 45 min, 37° C.; below concentration that blocks the enzyme's proteolytic activity
T5 construct: A portion of the extracellular domain of human PAR1 (Ala^26-Ser^99) (rPAR1EC) was expressed in Escherichia coli; His10-DDDDK (pET19b) (N); made in house; host or cells: E. coli BL21(DE3), pET19b (rPAR1EC)
T5 sequence (P25116 26-99): T2 sequence (P25116 26-99)
Procedure: as §1

mouse platelets = conditions: cited from earlier work
mouse carotid artery = conditions: cited from earlier work
thrombin = thrombin (Homo sapiens, UniProt P00734); conditions: read-out: Ki (retrobinders to the active site of thrombin); cited from earlier work

Row | Substance | time to death [1] | blocking of biotinylated-SILPAPRGYPGQ binding to RPPGC [2] | platelet activation and deposition [3] | blocking of RPPGF-biotin binding to rPAR1EC by peptides [4] | effect on α-thrombin cleavage of rPAR1EC [5] | effect on coronary thrombosis (coronary thrombosis) | blocking of RPPGF-biotin binding to rPAR4EC [6] | Ca^2^+ % Inhibition At 0.1 mM Peptide [7] | effect on cyclic flow variations (cyclic flow variations) | concentration that blocks thrombocytin cleavage of rPAR1EC [8] | effect on α-thrombin cleavage of rPAR1EC ([5]; 1 nM α-thrombin, 15 min, 37° C.) | mouse platelet aggregation (mouse platelets) | time to thrombosis of the mouse carotid artery (mouse carotid artery) | Ki (thrombin)
1 | rPPGF (RPPGF; not fully specified (residue 1); printed as rPPGF) [Arg-Pro-Pro-Gly-Phe, peptide of the RPPGF analog library] | delays the time to death | blocked | reduced platelet activation and deposition | blocked | prevents these enzymes from cleaving rPAR1EC | prevents coronary thrombosis | block | No Effect |  |  |  |  |  | 
2 | β-Ala-Lys-2Lys-4(Arg-Pro-Pro-Gly-Phe) (RPPGF; also: four copies on beta-Ala-Lys-2Lys-4 branched core) [MAP4-RPPGF, four-branched peptide of RPPGF on a β-alanine-lysine core] |  |  |  | blocked |  |  |  |  | prevents cyclic flow variations | 0.2 to 0.5 mM | prevents these enzymes from cleaving rPAR1EC | inhibits mouse platelet aggregation | delays the time to thrombosis | 1750 µM
